In paper PMC4275181:

Tests used:
Assay in all cases: filter binding
[1] = target: T1, CYT-18 NTDs (Neurospora crassa) (UniProt P12063); conditions: 100 mM KCl, 5 mM MgCl2, 20 mM Tris-HCl pH 7.5, 5 mM DTT, 0.1 mg/ml BSA, 10% glycerol, 5 pM RNA, 30 min, 25C or 37C, nitrocellulose/nylon filter
T1 sequence: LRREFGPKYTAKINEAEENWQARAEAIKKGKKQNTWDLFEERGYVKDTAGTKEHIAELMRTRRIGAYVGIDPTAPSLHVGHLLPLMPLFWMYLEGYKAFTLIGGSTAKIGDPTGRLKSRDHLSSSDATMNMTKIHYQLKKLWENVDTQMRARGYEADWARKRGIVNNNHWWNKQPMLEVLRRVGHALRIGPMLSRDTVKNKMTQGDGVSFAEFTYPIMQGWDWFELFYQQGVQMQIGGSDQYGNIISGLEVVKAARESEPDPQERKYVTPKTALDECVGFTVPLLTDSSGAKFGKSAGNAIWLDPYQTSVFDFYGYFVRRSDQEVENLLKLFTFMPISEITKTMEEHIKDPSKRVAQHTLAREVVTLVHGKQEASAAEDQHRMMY

[2] = target: T2, Sc CTD (Saccharomyces cerevisiae) (UniProt P48527); conditions: 25C; n=1.8; 100 mM KCl, 5 mM MgCl2, 20 mM Tris-HCl pH 7.5, 5 mM DTT, 0.1 mg/ml BSA, 10% glycerol, 5 pM RNA, 30 min, 25C or 37C; nitrocellulose/nylon filter
T2 sequence: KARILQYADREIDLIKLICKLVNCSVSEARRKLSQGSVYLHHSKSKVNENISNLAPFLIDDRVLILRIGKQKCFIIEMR

[3] = system: Sc mtTyrRS (Saccharomyces cerevisiae); conditions: 100 mM KCl, 5 mM MgCl2, 20 mM Tris-HCl pH 7.5, 5 mM DTT, 0.1 mg/ml BSA, 10% glycerol, 5 pM RNA, 30 min, 25C or 37C; nitrocellulose/nylon filter

Substance: Ll.LtrB group II intron RNA (dORF, branch-point nucleotide deleted)
- Kd [1]: 440 nM
- K half ([1]; 25C, n=1.6): 240 nM
- K half [2]: 110 nM
- Kd [3]: 440 nM

Substance: Nc ND1m group I intron RNA
- Kd ([1]; 25C, low end of stated range, strongest group I intron): 200 nM
- Kd ([1]; 37C, low end of stated range, strongest group I intron): 440 nM

Substance: Nc mt LSU group I intron RNA
- Kd ([1]; 25C, high end of stated range, weakest group I intron): 590 nM
- Kd ([1]; 37C, high end of stated range, weakest group I intron): 740 nM
- Kd [3]: 430 nM
